Source: patent publication US20110046355A1 (F STAR BIOTECHNOLOGISCHE FORSCHUNGS UND ENTWICKLUNGSGES M B …, published 2011)

Assays:
[1] = target: T1, Human soluble Her-2 (Bender Med Systems, Austria) (human, UniProt P04626 23-652, biotinylated (sulfo-LC-LC-biotin) when used for yeast FACS staining; unlabelled in ELISA and SPR); test: ELISA, human soluble Her-2 coated at 2 ug/ml, Fcab titrated, anti-Fc CH2-HRP detection
T1 construct: extracellular domain; given only as 'human soluble Her-2'; also called recombinant antigen Her2 (Bendermedsystems); Her2-biotin
Description: Human soluble Her-2 (Bender Med Systems, Austria) was coated to plastic at 2 μg/ml. After washing and blocking unspecific binding sites, increasing concentrations of Fcabs were added. To detect Her-2 bound Fcabs, anti-Fc CH2 domain specific monoclonal antibodies which were conjugated to horse radish peroxidase (Serotec) were added.

[2] = target: T2, Her-2 on Her-2 over-expressing human breast cancer cell lines SKBR3 and Calu-3 (human, UniProt P04626 23-1255); test: FACS on Her-2 over-expressing SKBR3 cells, anti-human Fc-PE detection
T2 construct: whole, on cells; also called SKBR3 cells; Calu-3 cells
Description: (§1) Antigen binding was also determined by SPR. Biacore CM5 chips were coated with different amounts of human soluble Her-2 followed by addition of increasing concentrations of Fcabs. The affinity (KD) of the Fcabs was calculated from the resulting binding curves after fitting using the software BiaEval. […] Antigen binding was also assessed by FACS using the Her-2 over-expressing human breast cancer cell lines SKBR3 and Calu-3. 1×10⁵ cells were incubated with increasing concentrations of Fcabs for 60 minutes on ice. Then, unbound antibodies were removed by centrifugation and washing. Cell bound Fcabs were detected by incubation with anti-human Fc specific antibodies conjugated to phycoerythrin (Sigma) for 60 minutes on ice. After washing the cells, the intensity of fluorescence on the cell surface was measured in a FACS Calibur instrument (Beckton Dickinson).

[3] = target: T2, Her-2 on Her-2 over-expressing human …; test: cell-based or functional assay
[4] = target: T1, Human soluble Her-2 (Bender Med …); test: assay not stated; told in the yeast display FACS selection and affinity maturation section (biotinylated Her2)
[5] = target: T1, Human soluble Her-2 (Bender Med …); test: SPR, Biacore CM5 chip coated with human soluble Her-2, Fcab as analyte, BiaEval fit
Description: as §1

[6] = target: T3, wild type Fcab (human, UniProt P0DOX5 218-449 = IgG part, limits assumed); test: SPR, Fcab (10 ug/ml) captured on Protein A chip (3000 RU), human soluble CD64 at 5 ug/ml as analyte
T3 construct: also called Fcab wt; wtFcab
Description: Association with the neonatal Fc receptor (FcRn) was measured by adding 10 μg/ml Fcab to a Biacore CM5 chip coupled to 5000 response units (RU) of recombinant human FcRn at pH=6.0. The dissociation of Fcab from FcRn was tested at pH=7.4. […] Finally, human soluble CD64 at 5 μg/ml was added.

[7] = target: T4, Fcab wt (non-randomized Fc fragment) expressed on yeast (human, UniProt P0DOX5 218-449 = IgG part); test: FACS of yeast-displayed Fcab wt, CD64 staining
T4 construct: also called Fcab-wt expressing cells; not shown: N-terminal Aga2 display fusion (and CH1 in vector pYD1dXFc)

Row | Binder | EC50 [1] | EC50 [2] | other results
1 | y-Her.C2.P4.2-9 (designed binder) EPKSCDKTHTCPPCPAPELLGGPSVFLFPPKPKDTLMISRTPEVTCVVVDVSHEDPEVKFNWYVDGVEVHNAKTKPREEQYNSTYRVVSVLTVLHQDWLNGKEYKCKVSNKALPAPIEKTISKAKGQPREPQVYTLPPSRDEYLHGDVSLTCLVKGFYPSDIAVEWESNGQPENNYKTTPPVLDSDGSFFLYSKLTVARYSPRMLRWAHGNVFSCSVMHEALHNHYTQKSLSLSPGK | 4.3 nM |  | 
2 | EF3-17 (designed binder) EPKSCDKTHTCPPCPAPELLGGPSVFLFPPKPKDTLMISRTPEVTCVVVDVSHEDPEVKFNWYVDGVEVHNAKTKPREEQYNSTYRVVSVLTVLHQDWLNGKEYKCKVSNKALPAPIEKTISKAKGQPREPQVYTLPPSRDEYLHGDVSLTCLVKGFYPSDIAVEWESNGQPENNYKTTPPVLDSDGSFFLYSKLTVARHSRTMWRWGHGNVFSCSVMHEALHNHYTQKSLSLSPGK | 4.7 nM | 1.3 nM | 
3 | ABEFs0101 (designed binder, If read literally (148-197) a Val would be doubled) EPKSCDKTHTCPPCPAPELLGGPSVFLFPPKPKDTLMISRTPEVTCVVVDVSHEDPEVKFNWYVDGVEVHNAKTKPREEQYNSTYRVVSVLTVLHQDWLNGKEYKCKVSNKALPAPIEKTISKAKGQPREPQVYTLPPSRDEYLSADVSLTCLVKGFYPSDIAVEWESNGQPENNYKTTPPVLDSDGSFFLYSKLTVARYSPSMWRWGHGNVFSCSVMHEALHNHYTQKSLSLSPGK | 16.1 nM | 5.2 nM | ADCC: SKBR3 cell killing by NK cells (7-AAD/CFSE double positive cells), EC50 [3]: 1 nM
4 | H10-03-6 (designed binder, also called H10-03-6 clone) EPKSCDKTHTCPPCPAPELLGGPSVFLFPPKPKDTLMISRTPEVTCVVVDVSHEDPEVKFNWYVDGVEVHNAKTKPREEQYNSTYRVVSVLTVLHQDWLNGKEYKCKVSNKALPAPIEKTISKAKGQPREPQVYTLPPSRDEYLYGDVSLTCLVKGFYPSDIAVEWESNGQPENNYKTTPPVLDSDGSFFLYSKLTVPRHSARMWRWAHGNVFSCSVMHEALHNHYTQKSLSLSPGK | 4.8 nM | 10.3 nM | EC50 [4]: 18.9 nM; ADCC: SKBR3 cell killing by NK cells (7-AAD/CFSE double positive cells), EC50 [3]: 1.1 nM; Kd [5]: 8.6 nM
5 | y-Her.C2.P4.2-4 (designed binder) EPKSCDKTHTCPPCPAPELLGGPSVFLFPPKPKDTLMISRTPEVTCVVVDVSHEDPEVKFNWYVDGVEVHNAKTKPREEQYNSTYRVVSVLTVLHQDWLNGKEYKCKVSNKALPAPIEKTISKAKGQPREPQVYTLPPSRDEYSDGDVSLTCLVKGFYPSDIAVEWESNGQPENNYKTTPPVLDSDGSFFLYSKLTVARYSPRMLRWAHGNVFSCSVMHEALHNHYTQKSLSLSPGK | 370 nM |  | 
6 | y-Her.C2.P4.2-3 (designed binder) EPKSCDKTHTCPPCPAPELLGGPSVFLFPPKPKDTLMISRTPEVTCVVVDVSHEDPEVKFNWYVDGVEVHNAKTKPREEQYNSTYRVVSVLTVLHQDWLNGKEYKCKVSNKALPAPIEKTISKAKGQPREPQVYTLPPSRDEYASNTVSLTCLVKGFYPSDIAVEWESNGQPENNYKTTPPVLDSDGSFFLYSKLTVARYSPRMLRWAHGNVFSCSVMHEALHNHYTQKSLSLSPGK | 463 nM |  | 
7 | y-Her.C2.P4.2-19 (designed binder) EPKSCDKTHTCPPCPAPELLGGPSVFLFPPKPKDTLMISRTPEVTCVVVDVSHEDPEVKFNWYVDGVEVHNAKTKPREEQYNSTYRVVSVLTVLHQDWLNGKEYKCKVSNKALPAPIEKTISKAKGQPREPQVYTLPPSRDEYRSGEVSLTCLVKGFYPSDIAVEWESNGQPENNYKTTPPVLDSDGSFFLYSKLTVARYSPRMLRWAHGNVFSCSVMHEALHNHYTQKSLSLSPGK | 93 nM |  | 
8 | human soluble CD64 (receptor, UniProt P12314 16-292, looked up, extracellular domain; Printed as 'human soluble CD64'; also called human CD64 (R&D Systems)) QVDTTKAVITLQPPWVSVFQEETVTLHCEVLHLPGSSSTQWFLNGTATQTSTPSYRITSASVNDSGEYRCQRGLSGRSDPIQLEIHRGWLLLQVSSRVFTEGEPLALRCHAWKDKLVYNVLYYRNGKAFKFFHWNSNLTILKTNISHNGTYHCSGMGKHRYTSAGISVTVKELFPAPVLNASVTSPLLEGNLVTLSCETKLLLQRPGLQLYFSFYMGSKTLRGRNTSSEYQILTARREDSGLYWCEAATEDGNVLKRSPELELQVLGLQLPTPVWFH |  |  | binding result [6]: binds; binding result [7]: binds
9 | H561G3M1G4 (designed binder) EPKSCDKTHTCPPCPAPELLGGPSVFLFPPKPKDTLMISRTPEVTCVVVDVSHEDPEVKFNWYVDGVEVHNAKTKPREEQYNSTYRVVSVLTVLHQDWLNGKEYKCKVSNKALPAPIEKTISKAKGQPREPQVYTLPPSRDEFFTYWVSLTCLVKGFYPSDIAVEWESNGQPENNYKTTPPVLDSDGSFFLYSKLTVDRRRWTAGNVFSCSVMHEALHNHYTQKSLSLSPGK | 263 nM |  | Kd [5]: 7.5 nM
